From PMC9482650, “Quantitative fragmentomics allow affinity mapping of interactomes” (Nature Communications, 2022)
Each block holds one binder with its values, some of them ahead of it.

Columns and labels:
Experiment in all cases: holdup assay
Set-up in all cases: key: below the threshold = too weak to quantify, mostly under pKd 3.1 to 4
Inadl_10, Q8NI35 = molecular target: Inadl_10, Q8NI35
Inadl_5, Q8NI35 = molecular target: Inadl_5, Q8NI35
CARD11, Q9BXL7 = molecular target: T1, CARD11, Q9BXL7
T1 sequence (Q9BXL7 662-765, limits assumed, looked up): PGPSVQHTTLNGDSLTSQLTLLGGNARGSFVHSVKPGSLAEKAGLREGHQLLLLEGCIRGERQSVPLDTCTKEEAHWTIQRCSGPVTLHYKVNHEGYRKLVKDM

SCRIB_1, Q14160 = molecular target: SCRIB_1, Q14160
APBA2_1, Q99767 = molecular target: T2, APBA2_1, Q99767
T2 sequence (Q99767 563-664, limits assumed, looked up): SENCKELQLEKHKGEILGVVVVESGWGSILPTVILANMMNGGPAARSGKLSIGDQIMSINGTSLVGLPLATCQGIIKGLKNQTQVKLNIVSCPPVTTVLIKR

SNTB1, Q13884 = molecular target: T3, SNTB1, Q13884
T3 sequence (Q13884 107-205, limits assumed, looked up): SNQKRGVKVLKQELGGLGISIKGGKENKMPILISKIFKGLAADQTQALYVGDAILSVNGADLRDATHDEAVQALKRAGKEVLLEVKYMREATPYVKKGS

TJP1_3, Q07157 = molecular target: TJP1_3, Q07157
DLG4_2, P78352 = molecular target: DLG4_2, P78352
HTRA1, Q92743 = molecular target: HTRA1, Q92743
FRMPD1, Q5SYB0 = molecular target: T4, FRMPD1, Q5SYB0
T4 sequence (Q5SYB0 52-145, limits assumed, looked up): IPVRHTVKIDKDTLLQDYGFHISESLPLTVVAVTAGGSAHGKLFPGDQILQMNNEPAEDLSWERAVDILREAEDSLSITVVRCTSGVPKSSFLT

FRMPD2_1, Q68DX3 = molecular target: FRMPD2_1, Q68DX3
FRMPD2_3, Q68DX3 = molecular target: FRMPD2_3, Q68DX3
NHERF3_4, Q5T2W1 = molecular target: T5, NHERF3_4, Q5T2W1
T5 sequence (Q5T2W1 373-468, limits assumed, looked up): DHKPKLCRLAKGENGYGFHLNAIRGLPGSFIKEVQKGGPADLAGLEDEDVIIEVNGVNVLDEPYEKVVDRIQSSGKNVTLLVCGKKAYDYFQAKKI

DLG1_1, Q12959 = molecular target: DLG1_1, Q12959
PARD3_3, Q8TEW0 = molecular target: PARD3_3, Q8TEW0
HTRA4, P83105 = molecular target: T6, HTRA4, P83105
T6 sequence (P83105 378-476, limits assumed, looked up): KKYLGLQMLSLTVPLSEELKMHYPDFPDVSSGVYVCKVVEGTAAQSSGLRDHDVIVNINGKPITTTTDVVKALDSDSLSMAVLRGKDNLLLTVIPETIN

PDZD2_2, O15018 = molecular target: T7, PDZD2_2, O15018
T7 sequence (O15018 329-429, limits assumed, looked up): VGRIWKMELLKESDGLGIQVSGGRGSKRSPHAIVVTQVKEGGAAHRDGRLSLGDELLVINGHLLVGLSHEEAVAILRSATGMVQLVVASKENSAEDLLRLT

LDB3, O75112 = molecular target: LDB3, O75112
NOS1, P29475 = molecular target: NOS1, P29475
MPP6, Q9NZW5 = molecular target: T8, MPP6, Q9NZW5
T8 sequence (Q9NZW5 125-219, limits assumed, looked up): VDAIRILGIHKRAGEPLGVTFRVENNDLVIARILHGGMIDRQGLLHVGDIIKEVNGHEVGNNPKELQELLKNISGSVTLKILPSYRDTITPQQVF

DLG1_3, Q12959 = molecular target: DLG1_3, Q12959
DLG3_1, Q92796 = molecular target: T9, DLG3_1, Q92796
T9 sequence (Q92796 125-227, limits assumed, looked up): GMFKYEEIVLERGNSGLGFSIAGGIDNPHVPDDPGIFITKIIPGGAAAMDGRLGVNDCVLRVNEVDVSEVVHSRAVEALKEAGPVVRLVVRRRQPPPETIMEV

PARD3B_1, Q8TEW8 = molecular target: T10, PARD3B_1, Q8TEW8
T10 sequence (Q8TEW8 196-299, limits assumed, looked up): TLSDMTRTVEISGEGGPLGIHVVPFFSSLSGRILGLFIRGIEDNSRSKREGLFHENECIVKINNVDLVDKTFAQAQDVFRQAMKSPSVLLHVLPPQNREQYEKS

LNX2_3, Q8N448 = molecular target: T11, LNX2_3, Q8N448
T11 sequence (Q8N448 463-564, limits assumed, looked up): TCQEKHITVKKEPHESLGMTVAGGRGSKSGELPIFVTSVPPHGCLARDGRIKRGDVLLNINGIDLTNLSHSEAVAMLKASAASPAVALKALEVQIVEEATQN

GRASP, Q7Z6J2 = molecular target: GRASP, Q7Z6J2
LIN7A, O14910 = molecular target: T12, LIN7A, O14910
T12 sequence (O14910 103-200, limits assumed, looked up): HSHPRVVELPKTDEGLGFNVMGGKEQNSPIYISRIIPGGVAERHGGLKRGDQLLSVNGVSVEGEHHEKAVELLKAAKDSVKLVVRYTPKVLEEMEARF

[1] = plain residues with an end cap or a label only (N-terminal biotin on a linker: ttds)
[2] = plain residues with an end cap or a label only (N-terminal biotin on a linker: ahx)

Sequence of GRASP, Q7Z6J2 (Q7Z6J2 96-193): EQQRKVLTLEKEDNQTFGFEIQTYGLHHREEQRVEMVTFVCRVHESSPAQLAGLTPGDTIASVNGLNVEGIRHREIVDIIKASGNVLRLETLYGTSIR
Sequence of LDB3, O75112 (O75112 1-94): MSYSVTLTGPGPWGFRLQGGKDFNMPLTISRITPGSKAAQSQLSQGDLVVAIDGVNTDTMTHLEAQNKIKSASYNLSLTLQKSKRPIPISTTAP
Sequence of NOS1, P29475 (P29475 9-101): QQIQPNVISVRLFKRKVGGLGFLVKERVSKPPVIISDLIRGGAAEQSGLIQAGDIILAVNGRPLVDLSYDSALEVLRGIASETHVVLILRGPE
Sequence of TJP1_3, Q07157 (Q07157 416-512): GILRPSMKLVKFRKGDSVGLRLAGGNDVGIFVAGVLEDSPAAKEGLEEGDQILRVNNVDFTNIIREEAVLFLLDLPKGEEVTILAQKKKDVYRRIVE
Sequence of SCRIB_1, Q14160 (Q14160 718-814): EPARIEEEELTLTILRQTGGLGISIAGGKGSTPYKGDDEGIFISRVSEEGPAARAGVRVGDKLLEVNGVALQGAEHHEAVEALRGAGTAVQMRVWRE
Sequence of HTRA1, Q92743 (Q92743 360-477): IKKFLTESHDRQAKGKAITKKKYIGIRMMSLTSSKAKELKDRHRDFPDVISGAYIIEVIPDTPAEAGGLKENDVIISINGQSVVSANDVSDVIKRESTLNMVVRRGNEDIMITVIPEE
Sequence of FRMPD2_3, Q68DX3 (Q68DX3 1073-1166): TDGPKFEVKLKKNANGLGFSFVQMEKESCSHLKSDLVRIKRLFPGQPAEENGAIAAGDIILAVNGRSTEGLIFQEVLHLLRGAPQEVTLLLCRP
Sequence of FRMPD2_1, Q68DX3 (Q68DX3 770-861): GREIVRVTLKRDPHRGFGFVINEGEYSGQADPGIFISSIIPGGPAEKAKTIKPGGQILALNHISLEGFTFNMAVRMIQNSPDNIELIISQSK
Sequence of PARD3_3, Q8TEW0 (Q8TEW0 582-685): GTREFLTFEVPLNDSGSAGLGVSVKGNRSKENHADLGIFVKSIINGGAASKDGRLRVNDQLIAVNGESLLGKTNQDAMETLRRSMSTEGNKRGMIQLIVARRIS
Sequence of Inadl_10, Q8NI35 (Q8NI35 1673-1763): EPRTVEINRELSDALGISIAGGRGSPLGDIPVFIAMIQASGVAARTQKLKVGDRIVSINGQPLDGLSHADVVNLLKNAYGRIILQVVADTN
Sequence of Inadl_5, Q8NI35 (Q8NI35 673-780): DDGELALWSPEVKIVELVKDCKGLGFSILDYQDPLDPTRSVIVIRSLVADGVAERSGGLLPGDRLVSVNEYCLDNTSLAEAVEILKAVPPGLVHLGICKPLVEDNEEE
Sequence of DLG4_2, P78352 (P78352 155-259): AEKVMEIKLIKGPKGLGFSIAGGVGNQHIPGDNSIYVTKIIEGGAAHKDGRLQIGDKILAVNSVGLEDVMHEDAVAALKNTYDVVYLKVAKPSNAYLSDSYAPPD

pKd (Inadl_10, Q8NI35; [1]): below the threshold
pKd (Inadl_5, Q8NI35; [1]): below the threshold
pKd (CARD11, Q9BXL7; [1]): below the threshold
pKd (SCRIB_1, Q14160; [1]): below the threshold
pKd (APBA2_1, Q99767; [1]): below the threshold
pKd (SNTB1, Q13884; [1]): 4.86
pKd (TJP1_3, Q07157; [1]): below the threshold
pKd (DLG4_2, P78352; [1]): 4.42
pKd (HTRA1, Q92743; [1]): 4.13
pKd (FRMPD1, Q5SYB0; [1]): below the threshold
pKd (FRMPD2_1, Q68DX3; [1]): below the threshold
pKd (FRMPD2_3, Q68DX3; [1]): below the threshold
pKd (NHERF3_4, Q5T2W1; [1]): below the threshold
pKd (DLG1_1, Q12959; [1]): 4.39
pKd (PARD3_3, Q8TEW0; [1]): 3.85
pKd (HTRA4, P83105; [1]): below the threshold
pKd (PDZD2_2, O15018; [1]): 4.12
pKd (LDB3, O75112; [1]): below the threshold
pKd (NOS1, P29475; [1]): 3.92
pKd (MPP6, Q9NZW5; [1]): below the threshold
pKd (DLG1_3, Q12959; [1]): 3.5
pKd (DLG3_1, Q92796; [1]): below the threshold
pKd (PARD3B_1, Q8TEW8; [1]): below the threshold
pKd (LNX2_3, Q8N448; [1]): below the threshold
pKd (GRASP, Q7Z6J2; [1]): below the threshold
pKd (LIN7A, O14910; [1]): 3.61
B1: ARHGAP6, O43182 (peptide)
chain: NPDALPETLV

pKd (Inadl_10, Q8NI35; [2]): below the threshold
pKd (Inadl_5, Q8NI35; [2]): below the threshold
pKd (CARD11, Q9BXL7; [2]): below the threshold
pKd (SCRIB_1, Q14160; [2]): 3.74
pKd (APBA2_1, Q99767; [2]): below the threshold
pKd (SNTB1, Q13884; [2]): 3.5
pKd (TJP1_3, Q07157; [2]): 3.62
pKd (DLG4_2, P78352; [2]): 4.81
pKd (HTRA1, Q92743; [2]): 4.6
pKd (FRMPD1, Q5SYB0; [2]): below the threshold
pKd (FRMPD2_1, Q68DX3; [2]): below the threshold
pKd (FRMPD2_3, Q68DX3; [2]): below the threshold
pKd (NHERF3_4, Q5T2W1; [2]): below the threshold
pKd (DLG1_1, Q12959; [2]): 4.29
pKd (PARD3_3, Q8TEW0; [2]): 4.05
pKd (HTRA4, P83105; [2]): below the threshold
pKd (PDZD2_2, O15018; [2]): 5.95
pKd (LDB3, O75112; [2]): below the threshold
pKd (NOS1, P29475; [2]): 3.85
pKd (MPP6, Q9NZW5; [2]): below the threshold
pKd (DLG1_3, Q12959; [2]): below the threshold
pKd (DLG3_1, Q92796; [2]): 4.09
pKd (PARD3B_1, Q8TEW8; [2]): below the threshold
pKd (LNX2_3, Q8N448; [2]): below the threshold
pKd (GRASP, Q7Z6J2; [2]): below the threshold
pKd (LIN7A, O14910; [2]): below the threshold
B2: ARVCF, O00192 (peptide)
chain: AKPQPVDSWV
